Patent US20110287512

How the values were obtained:
[1] = tested on: ZFP8196 linker 1f center linker F2-F3 TGEKP replaced by TYPRPIAAKP (artificial); experiment: ELONA; conditions: normalized ELISA score
[2] = tested on: ZFP8196 linker TCPRPPTRKP (artificial)
[3] = tested on: ZFP8196 linker TVSPAPCRSKP (artificial)
[4] = tested on: ZFP8196 linker TPGLHRPKP (artificial)
[5] = tested on: ZFP8196 linker TSSPRSNAKP (artificial)
[6] = tested on: ZFP8196 linker TPSHTPRPKP (artificial)
[7] = tested on: ZFP8196 linker TEPRAKPPKP (artificial)
[8] = tested on: ZFP8196 linker TPDRPISTCKP (artificial)
[9] = tested on: ZFP8196 linker TPDAPKPKP (artificial)
[10] = tested on: ZFP8196 linker LRQKDERP (artificial)
[11] = tested on: ZFP8196 linker 1d (artificial)
[12] = tested on: ZFP8196 linker TGEGGKP (artificial)
[13] = tested on: ZFP8196 (host, center linker TGEKP) (artificial)
[14] = tested on: ZFP8196 linker TGYSIPRPKP (artificial)
[15] = tested on: ZFP8196 linker 1c (artificial)
[16] = tested on: ZFP8196 linker TSPRLPAPKP (artificial)
[17] = tested on: ZFP8196 linker TGGGGSQKP (artificial)
[18] = tested on: ZFN7264 linker TGLPKPKP (artificial); experiment: cell_activity; conditions: yeast, paired with 7263 ZFN
[19] = tested on: ZFN7264 linker TGGGGSQKP (artificial); experiment: cell_activity; conditions: yeast, paired with 7263 ZFN
[20] = tested on: ZFN7264 linker TSRPRPKP (artificial); experiment: cell_activity; conditions: yeast, paired with 7263 ZFN
[21] = tested on: ZFN7264 (host, center linker TGSQKP) (synthetic); experiment: cell_activity; conditions: yeast, partner ZFN7263; host on 0-bp gap = 1.00; host data same as Table 9
[22] = tested on: ZFN7264 linker 1e (artificial); experiment: cell_activity; conditions: yeast, paired with 7263 ZFN
[23] = tested on: ZFP7264 linker 1e center linker F2-F3 TGSQKP replaced by TVPRPTPPKP (artificial); experiment: ELONA; conditions: normalized ELISA score
[24] = tested on: ZFP7264 (host, center linker TGSQKP) (artificial)
[25] = tested on: ZFP7264 linker TKHGTPKHREDKP (artificial)
[26] = tested on: ZFP7264 linker TGLPKPKP (artificial)
[27] = tested on: ZFP7264 linker LRQKDERP (artificial)
[28] = tested on: ZFP7264 linker TLPLPRPKP (artificial)
[29] = tested on: ZFP7264 linker TGGGGSQKP (artificial)
[30] = tested on: ZFP7264 linker TSRPRPKP (artificial)
[31] = tested on: ZFP7264 linker TGEGGKP (artificial)
[32] = tested on: ZFP7264 linker TLPPCFRPKP (artificial)
[33] = tested on: ZFN7263 linker TPNRCPPTKP (artificial); experiment: cell_activity; conditions: yeast, paired with 7264 ZFN
[34] = tested on: ZFN7263 linker TPRPPIPKP (artificial); experiment: cell_activity; conditions: yeast, paired with 7264 ZFN
[35] = tested on: ZFN7263 linker TGGGGSQKP (artificial); experiment: cell_activity; conditions: yeast, paired with 7264 ZFN
[36] = tested on: ZFN7263 (host) (artificial); experiment: cell_activity; conditions: yeast, paired with 7264 ZFN
[37] = tested on: ZFN7263 linker TPLCQRPMKQKP (artificial); experiment: cell_activity; conditions: yeast, paired with 7264 ZFN; value as printed
[38] = tested on: ZFN7263 linker TYPRPLLAKP (artificial); experiment: cell_activity; conditions: yeast, paired with 7264 ZFN
[39] = tested on: ZFN7263 linker TQRPQIPPKP (artificial); experiment: cell_activity; conditions: yeast, paired with 7264 ZFN
[40] = tested on: ZFP7263 linker TYPRPLLAKP center linker F2-F3 TGSQKP replaced by TYPRPLLAKP (artificial); experiment: ELONA; conditions: normalized ELISA score
[41] = tested on: ZFP7263 linker LRQKDERP (artificial)
[42] = tested on: ZFP7263 linker TPRPPIPKP (artificial)
[43] = tested on: ZFP7263 linker TGEGGKP (artificial)
[44] = tested on: ZFP7263 (host, center linker TGSQKP) (artificial)
[45] = tested on: ZFP7263 linker TQRPQIPPKP (artificial)
[46] = tested on: ZFP7263 linker TPLCQRPMKQKP (artificial)
[47] = tested on: ZFP7263 linker TPNRCPPTKP (artificial)
[48] = tested on: ZFP7263 linker TGGGGSQKP (artificial)

“TTAGATAAACTGGCAAAAGGCTATC (double strand) [8196 target gap G]” showed a binding signal [1] of 0.65, a binding signal (normalized ELISA) [2] of 0.48 and a binding signal (normalized ELISA) [3] of 0.14. The binding signal (normalized ELISA) [4] was 0.65, the binding signal (normalized ELISA) [5] was 0.2 and the binding signal (normalized ELISA) [6] was 0.84. It also gave a binding signal (normalized ELISA) [7] of 0.78, a binding signal (normalized ELISA) [8] of 0.29 and a binding signal (normalized ELISA) [9] of 0.68. For the same sequence, the binding signal (normalized ELISA) [10] was 0.04, the binding signal (normalized ELISA) [11] was 0.52 and the binding signal (normalized ELISA) [12] was 0.03. For the same sequence, the binding signal (normalized ELISA) [13] was 0.03, the binding signal (normalized ELISA) [14] was 0.43 and the binding signal (normalized ELISA) [15] was 0.57. The binding signal (normalized ELISA) [16] was 0.62 and the binding signal (normalized ELISA) [17] was 0.
In the case of “AAAGCGTTGCTCCG (double strand) [7264 yeast half-site gap TT]”, the activity (normalized MEL-1) [18] is reported as 0.11, the activity (normalized MEL-1) [19] is reported as 0.12 and the activity (normalized MEL-1) [20] is reported as 0.03. The activity (normalized MEL-1) [21] was 0.09 and the activity (normalized MEL-1) [22] was 0.12.
“TTAGTTAAAGCGGGCTCCGAATATC (double strand) [7264 target gap G]” showed a binding signal [23] of 1.58, a binding signal (normalized ELISA) [24] of 0 and a binding signal (normalized ELISA) [25] of 0.01. For the same sequence, the binding signal (normalized ELISA) [26] was 0.38, the binding signal (normalized ELISA) [27] was 0.06 and the binding signal (normalized ELISA) [28] was 0.85. For the same sequence, the binding signal (normalized ELISA) [29] was 0.08, the binding signal (normalized ELISA) [30] was 0.77 and the binding signal (normalized ELISA) [31] was 0.05. For the same sequence, the binding signal (normalized ELISA) [32] was 0.77.
Sequence “AAAGCGCGCTCCG (double strand) [7264 yeast half-site gap C]” has an activity (normalized MEL-1) [18] of 0.07, an activity (normalized MEL-1) [19] of 0.07 and an activity (normalized MEL-1) [20] of 0.08. It also gave an activity (normalized MEL-1) [21] of 0.05 and an activity (normalized MEL-1) [22] of 0.14.
With “ACTCTGACTGGAAG (double strand) [7263 yeast half-site gap AC]” the activity (normalized MEL-1) [33] was 0.04, the activity (normalized MEL-1) [34] was 0.05 and the activity (normalized MEL-1) [35] was 0.04. For the same sequence, the activity (normalized MEL-1) [36] was 0.09, the activity (normalized MEL-1) [37] was 1.05 and the activity (normalized MEL-1) [38] was 0.1. For the same sequence, the activity (normalized MEL-1) [39] was 0.03.
“TTAGTTAAAGCGAGCTCCGAATATC (double strand) [7264 target gap A]” gave a binding signal [23] of 2.35, a binding signal (normalized ELISA) [24] of 0 and a binding signal (normalized ELISA) [25] of 0.01. For the same sequence, the binding signal (normalized ELISA) [26] was 0.19, the binding signal (normalized ELISA) [27] was 0.05 and the binding signal (normalized ELISA) [28] was 0.58. It also gave a binding signal (normalized ELISA) [29] of 0.07, a binding signal (normalized ELISA) [30] of 0.52 and a binding signal (normalized ELISA) [31] of 0.02. It also gave a binding signal (normalized ELISA) [32] of 0.72.
“AAAGCGAGCTCCG (double strand) [7264 yeast half-site gap A]” was tested, and the activity (normalized MEL-1) [18] was 0.08, the activity (normalized MEL-1) [19] was 0.08 and the activity (normalized MEL-1) [20] was 0.18. For the same sequence, the activity (normalized MEL-1) [21] was 0.05 and the activity (normalized MEL-1) [22] was 1.24.
Sequence “TTAGCCACTCTGATGGAAGTGTATC (double strand) [7263 target gap A]” has a binding signal [40] of 1.95, a binding signal (normalized ELISA) [41] of 0.03 and a binding signal (normalized ELISA) [42] of 0.97. The binding signal (normalized ELISA) [43] was 0.02, the binding signal (normalized ELISA) [44] was 0.01 and the binding signal (normalized ELISA) [45] was 1.66. The binding signal (normalized ELISA) [46] was 1.82, the binding signal (normalized ELISA) [47] was 1.68 and the binding signal (normalized ELISA) [48] was 0.06.
“TTAGATAAACTGCCAAAAGGCTATC (double strand) [8196 target gap C]” was tested, and the binding signal [1] was 0.14, the binding signal (normalized ELISA) [2] was 0.05 and the binding signal (normalized ELISA) [3] was 0.01. The binding signal (normalized ELISA) [4] was 0.1, the binding signal (normalized ELISA) [5] was 0.02 and the binding signal (normalized ELISA) [6] was 0.13. For the same sequence, the binding signal (normalized ELISA) [7] was 0.17, the binding signal (normalized ELISA) [8] was 0.05 and the binding signal (normalized ELISA) [9] was 0.13. It also gave a binding signal (normalized ELISA) [10] of 0.01, a binding signal (normalized ELISA) [11] of 0.09 and a binding signal (normalized ELISA) [12] of 0. The binding signal (normalized ELISA) [13] was 0.01, the binding signal (normalized ELISA) [14] was 0.06 and the binding signal (normalized ELISA) [15] was 0.09. The binding signal (normalized ELISA) [16] was 0.14 and the binding signal (normalized ELISA) [17] was 0.
